Source: patent US20230340087A1

Target: Clostridium difficile toxin A (TcdA) (Clostridium difficile) (UniProt P16154)
Test: cell-based or functional assay

Sequence of Clostridium difficile toxin A (TcdA) (Clostridium difficile) (P16154 whole entry): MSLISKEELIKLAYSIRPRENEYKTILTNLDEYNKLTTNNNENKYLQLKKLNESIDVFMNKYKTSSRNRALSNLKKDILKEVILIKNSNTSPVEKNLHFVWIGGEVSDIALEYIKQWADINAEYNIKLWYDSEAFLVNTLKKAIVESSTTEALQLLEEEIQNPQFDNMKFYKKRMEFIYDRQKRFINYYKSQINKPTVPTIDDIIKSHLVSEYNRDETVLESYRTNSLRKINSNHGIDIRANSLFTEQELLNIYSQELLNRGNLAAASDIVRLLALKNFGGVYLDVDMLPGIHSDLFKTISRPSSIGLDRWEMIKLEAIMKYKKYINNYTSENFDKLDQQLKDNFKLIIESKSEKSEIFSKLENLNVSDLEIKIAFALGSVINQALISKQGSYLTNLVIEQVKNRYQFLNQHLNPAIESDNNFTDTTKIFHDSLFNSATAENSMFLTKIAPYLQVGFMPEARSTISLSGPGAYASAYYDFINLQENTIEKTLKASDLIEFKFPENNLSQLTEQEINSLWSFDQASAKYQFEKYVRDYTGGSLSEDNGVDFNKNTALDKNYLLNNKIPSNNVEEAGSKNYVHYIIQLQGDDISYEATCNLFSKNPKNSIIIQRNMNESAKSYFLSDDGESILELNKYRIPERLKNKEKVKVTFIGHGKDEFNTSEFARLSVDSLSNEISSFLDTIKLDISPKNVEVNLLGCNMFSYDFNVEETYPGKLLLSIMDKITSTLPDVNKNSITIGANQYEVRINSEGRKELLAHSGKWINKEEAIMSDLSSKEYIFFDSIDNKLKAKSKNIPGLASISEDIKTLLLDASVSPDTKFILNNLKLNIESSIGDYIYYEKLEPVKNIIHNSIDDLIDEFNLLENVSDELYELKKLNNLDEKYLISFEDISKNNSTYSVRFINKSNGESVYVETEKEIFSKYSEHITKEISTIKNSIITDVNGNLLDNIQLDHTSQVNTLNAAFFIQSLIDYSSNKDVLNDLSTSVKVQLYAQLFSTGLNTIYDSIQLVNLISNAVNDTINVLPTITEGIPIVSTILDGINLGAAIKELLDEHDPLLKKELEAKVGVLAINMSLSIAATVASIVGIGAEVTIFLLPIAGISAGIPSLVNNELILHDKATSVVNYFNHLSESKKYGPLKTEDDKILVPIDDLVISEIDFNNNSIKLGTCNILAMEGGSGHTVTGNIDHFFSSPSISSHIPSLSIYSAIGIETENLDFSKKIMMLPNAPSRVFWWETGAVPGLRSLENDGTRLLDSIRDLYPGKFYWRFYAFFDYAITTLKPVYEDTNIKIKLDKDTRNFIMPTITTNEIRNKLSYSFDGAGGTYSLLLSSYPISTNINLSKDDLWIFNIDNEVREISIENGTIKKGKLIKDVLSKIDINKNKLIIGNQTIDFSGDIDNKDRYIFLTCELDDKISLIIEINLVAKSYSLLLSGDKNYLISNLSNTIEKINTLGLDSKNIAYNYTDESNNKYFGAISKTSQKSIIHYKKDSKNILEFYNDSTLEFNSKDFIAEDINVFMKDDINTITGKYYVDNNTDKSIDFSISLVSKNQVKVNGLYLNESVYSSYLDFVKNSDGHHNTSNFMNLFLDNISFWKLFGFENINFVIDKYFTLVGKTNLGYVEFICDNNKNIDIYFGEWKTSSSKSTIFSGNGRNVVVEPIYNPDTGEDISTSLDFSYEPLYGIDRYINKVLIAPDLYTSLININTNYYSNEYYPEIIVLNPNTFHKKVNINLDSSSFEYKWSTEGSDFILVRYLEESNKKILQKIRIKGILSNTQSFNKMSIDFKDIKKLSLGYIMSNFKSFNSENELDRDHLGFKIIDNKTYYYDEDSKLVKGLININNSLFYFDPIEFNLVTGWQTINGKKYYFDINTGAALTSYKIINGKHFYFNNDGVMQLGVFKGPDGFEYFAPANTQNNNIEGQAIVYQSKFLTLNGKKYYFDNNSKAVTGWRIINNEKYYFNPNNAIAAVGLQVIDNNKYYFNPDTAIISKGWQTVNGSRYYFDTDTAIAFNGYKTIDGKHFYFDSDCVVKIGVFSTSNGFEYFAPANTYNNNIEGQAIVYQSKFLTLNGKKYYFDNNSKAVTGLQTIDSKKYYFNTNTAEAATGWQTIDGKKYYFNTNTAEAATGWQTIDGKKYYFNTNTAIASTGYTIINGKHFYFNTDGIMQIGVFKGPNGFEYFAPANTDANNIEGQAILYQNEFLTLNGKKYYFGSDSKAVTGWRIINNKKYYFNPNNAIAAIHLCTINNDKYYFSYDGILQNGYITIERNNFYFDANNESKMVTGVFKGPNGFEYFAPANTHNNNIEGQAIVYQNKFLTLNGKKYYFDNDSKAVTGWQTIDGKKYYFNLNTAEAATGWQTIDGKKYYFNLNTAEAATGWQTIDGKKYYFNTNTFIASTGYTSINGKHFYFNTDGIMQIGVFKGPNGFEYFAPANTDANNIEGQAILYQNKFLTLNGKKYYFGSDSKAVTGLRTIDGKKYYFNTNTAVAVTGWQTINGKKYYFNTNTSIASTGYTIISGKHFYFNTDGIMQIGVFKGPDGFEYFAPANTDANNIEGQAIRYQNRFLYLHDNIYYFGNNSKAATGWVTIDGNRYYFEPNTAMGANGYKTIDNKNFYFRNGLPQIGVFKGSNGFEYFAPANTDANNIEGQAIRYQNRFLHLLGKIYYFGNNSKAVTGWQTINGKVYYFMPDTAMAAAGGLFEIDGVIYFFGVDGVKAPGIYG

Merck anti-TcdA human monoclonal antibody (actoxumab)
minimal dose of antibody protecting Vero cells from TcdA-induced cell rounding: > 10 nM
